The series addresses ribosomal protein S1 (Escherichia coli, UniProt P0AG67 1-557). Put plainly: EMSA; natural S1; preferred over SBS-Up; EMSA: 1 uM biotin-RNA, 1x EMSA/Gel-shift binding buffer (Beyotime), 20 C, 30 min; native PAGE in ice-cold 0.5x TBE, 170 V; salt and pH not stated.

On to UCGGCUCGUAUAAUGUGUGGAACGCUUUUACUGUUUUAAGGAGAUAUACC (ssRNA) [SBS-Down-RNA], for which the binding result was “binds”.

Source of the values: PMC9437053.
